Source: patent US20040052799A1, “Nucleic acid and amino acid sequences relating to Helicobacter pylori for diagnostics and therapeutics” (Astra Aktiebolag, priority 1996, published 2004)

Assays:
[1] = target: T1, H. pylori KDO-8-P synthase (Helicobacter pylori, UniProt Q9ZN55); assay: KDO-8-P synthase Assay 2, Pi release, molybdate-malachite green; type: biochemical; set-up: unit not given here; conditions: 25° C., 0.3 mM Ara5P, 0.3 mM PEP, 1.28 ug/ml enzyme
T1 construct: histidine tag; made in house
Procedure: Because of the potential interference of test compounds on the assay at 232 nm, a method was developed to measure the amount of Pi released in the reaction (Lanzatta et al. 1979).
This assay ws performed in a 96 well ELISA place, 50 ul assay mixtures containing 0,1 M Tris-acetate (pH 7.5), 0.3 mM Ara5P and 0.3 mM PEP, and 1.28 ug/ml of KDO-8-P synthase were incubated at 25° C. for different times. The reaction was then quenched with the addition of the molybdate-malachite green reagent. […] Under those conditions, the activity measured was 0.734-moles/min/mg protein, which was similar to the rate that was measured with the 232 nm assay.
When assayed in the presence of 0.02% Brij 35, the reaction proceeded faster. Under those conditions, the activity increased up to 1 mole/min mg protein.

[2] = target: T1, H. pylori KDO-8-P synthase; assay: Long term storage stability of KDO-8-P synthase
Procedure: The long term storage stability of the enzyme was tested over several conditions. […] Enzyme stored in 50% glycerol appeared to have less activity during extended storage at −20° C. (FIG. 9).

[3] = target: T1, H. pylori KDO-8-P synthase; assay: KDO-8-P synthase Assay 1, PEP utilization at 232 nm; type: biochemical; conditions: room temperature, 0.3 mM Ara5P, 0.3 mM PEP, pH 7.5
Procedure: The enzyme reaction was performed in a final volume of […] containing 0.3 mM Ara5P, 0.3 mM PEP and 0.1 M Tris-acetate pH 7.5. Reactions were started with […] of purified enzyme and were followed spectrophotometrically at 232 nm for 15 minutes. As a control, the mixture minus enzyme was measured. No decrease in the absorbance at 232 nm was observed when no enzyme was added. […] An extinction coefficient of 2840 M cm^−1 of PEP, was used to estimate that at room temperature, the activity of the enzyme was 0.7-mole/min/mg protein.

B1: KDO-8-P synthase: recombinant H. pylori KDO-8-P synthase, histidine-tagged fusion protein (SEQ ID NO: 6945) (protein, listed as Helicobacter pylori)
chain: MKTSNTKTPKPVLIAGPCVIESLENLRSIAIKLQPLANNERLDFYFKASFDKANRTSLESYRGPGLEKGLEMLQTIKDEFGYKILTDVHESYQASVAAKVADILQIPAFLCRQTDLIVEVSQTNAIVNIKKGQFMNPKDMQYSVLKALKTRDSSIQSPTYETALKNGVWLCERGSSFGYGNLVVDMRSLKIMREFAPVIFDATHSVQMPGGANGKSSGDSSFPPILPRAAAAVGIDGLFAETHIDPKNALSDGANMLKPDELEHLVTDMLKIQNLF
modifications: His tag; misc_feature (B) LOCATION 1...276; hypothetical: YES
With B1 the activity measured [1] was 0.734, the activity after storage ([2]; 50 mM phosphate pH 8.0 and 1 mM PEP, −20° C., at least three weeks) was “no loss of activity” and the activity after storage ([2]; 50% glycerol, extended storage at −20° C., FIG. 9) was “less activity”. The “activity of the enzyme” value [3] was 0.7 mole/min/mg protein.
